# Laboratory results published in the Human Domainome abundance scans (Beltran et al. 2025).
# ± gives the uncertainty stated by the source.
# B1: V(D)J recombination-activating protein 2, residues 415 to 491; numbered along this chain, P55895 (parent)
# chain: YWITCCPTCDVDINTWVPFYSTELNKPAMIYCSHGDGHWVHAQCMDLAERTLIHLSAGSNKYYCNEHVEIARALHTP
# B2: PDZ and LIM domain protein 2, residues 284 to 339; numbered along this chain, Q96JY6 (parent)
# chain: HTCEKCSTSIANQAVRIQEGRYRHPGCYTCADCGLNLKMRGHFWVGDELYCEKHAR
# Variants of: B1
# Assay: abundance fitness (aPCA) (normalised: wild type 0, dead -1); higher = more abundant; growth selection in yeast, the domain comes from the species named
# Conditions: Homo sapiens
row,Variant,abundance fitness
1,W39Y,0.014 ± 0.079
2,W39Q,-0.176 ± 0.053
3,W39P,-0.294 ± 0.064
4,W39E,-0.148 ± 0.049
5,W39K,-0.23 ± 0.07
6,E23C,-0.851 ± 0.42
7,E23R,-1.03 ± 0.24
8,Q43T,0.107 ± 0.36
9,Q43A,-0.397 ± 0.5
10,Q43S,-0.174 ± 0.21
11,Q43G,-0.203 ± 0.14
12,I3W,-0.159 ± 0.068
13,I3H,-0.265 ± 0.078
14,I3P,-0.623 ± 0.078
15,I3K,-0.018 ± 0.057
16,I3E,-0.082 ± 0.074
17,E49D,-0.038 ± 0.083
18,E49R,-0.368 ± 0.055
19,E49G,-0.295 ± 0.044
20,E49A,-0.056 ± 0.046
21,E49Q,-0.019 ± 0.093
22,R72F,-0.131 ± 0.18
23,R72K,0.022 ± 0.18
24,R72V,-0.016 ± 0.12

row,Variant,abundance fitness
1,D36F,-0.217 ± 0.16
2,D36C,-0.092 ± 0.26
3,D36H,-0.214 ± 0.33
4,D36A,-0.177 ± 0.1
5,D36S,-0.149 ± 0.14
6,I70C,0.176 ± 0.13
7,D10Q,0.121 ± 0.21
8,D10S,-0.114 ± 0.21
9,D10G,-0.03 ± 0.13
10,C64H,-0.962 ± 0.41
11,C64T,-1.05 ± 0.4
12,T22H,0.216 ± 0.46
13,T22S,0.096 ± 0.18
14,T22A,-0.157 ± 0.41
15,T22W,-0.121 ± 0.13
16,T22C,-0.131 ± 0.34
17,T22V,-0.062 ± 0.13
18,V40K,-0.316 ± 0.13
19,V40C,-0.206 ± 0.18
20,V40A,-0.288 ± 0.14
21,V40M,-0.092 ± 0.11
22,V40N,-0.633 ± 0.33
23,V40W,-1.16 ± 0.23
24,V40Q,-0.626 ± 0.24

row,Variant,abundance fitness
1,G58A,-0.049 ± 0.074
2,G58K,-0.063 ± 0.13
3,G58H,0.013 ± 0.16
4,Y20P,-0.378 ± 0.26
5,Y20V,-0.719 ± 0.29
6,M29R,0.055 ± 0.23
7,M29C,-0.532 ± 0.3
8,H38N,-0.689 ± 0.42
9,P18S,-0.344 ± 0.17
10,P18H,-0.175 ± 0.3
11,H54Q,-0.277 ± 0.15
12,H54N,-0.061 ± 0.1
13,H54M,-0.087 ± 0.12
14,H54Y,-0.183 ± 0.24
15,H54S,-0.002 ± 0.091
16,R50T,0.049 ± 0.06
17,R50D,-0.027 ± 0.096
18,R50G,0.036 ± 0.051
19,P7W,-0.242 ± 0.23
20,P7K,0.084 ± 0.31
21,C9F,-0.637 ± 0.26
22,C9Q,-0.175 ± 0.3

# Variants of: B2
# Assay: as above
# Conditions: Homo sapiens
row,Variant,abundance fitness
1,Y50K,0.04 ± 0.078
2,Y50M,0.077 ± 0.093
3,Y50G,-0.501 ± 0.069
4,Y50Q,-0.256 ± 0.069
5,Y50V,0.072 ± 0.086
6,Y50N,-0.239 ± 0.17
7,Y50F,-0.001 ± 0.15
8,Y50L,-0.039 ± 0.084
9,Y50I,-0.194 ± 0.18
10,Y50R,-0.008 ± 0.069
11,Y50W,-0.161 ± 0.076
12,Y50T,-0.289 ± 0.098
13,Y50H,-0.083 ± 0.2
14,A55S,0.148 ± 0.1
15,A55G,-0.079 ± 0.084
16,A55Y,0.081 ± 0.073
17,A55V,-0.172 ± 0.084
18,A55P,-0.414 ± 0.22
19,A55Q,0.041 ± 0.15
20,A55T,-0.013 ± 0.11
21,A55C,-0.108 ± 0.1
22,A55W,0.063 ± 0.056
23,A55F,0.12 ± 0.081
24,A55E,-0.309 ± 0.16
25,A55M,-0.066 ± 0.091

row,Variant,abundance fitness
1,A55I,-0.203 ± 0.26
2,A55D,-0.097 ± 0.11
3,A55R,0.005 ± 0.074
4,E52R,-0.256 ± 0.064
5,E52P,0.183 ± 0.12
6,E52M,-0.152 ± 0.08
7,E52A,-0.183 ± 0.059
8,E52L,-0.156 ± 0.098
9,E52I,-0.468 ± 0.14
10,E52S,-0.352 ± 0.094
11,E52K,-0.226 ± 0.095
12,E52Q,-0.102 ± 0.22
13,E52V,-0.605 ± 0.15
14,E52C,-0.246 ± 0.1
15,E52W,-0.108 ± 0.11
16,E52F,-0.075 ± 0.14
17,E52D,0.029 ± 0.062
18,E52N,0.18 ± 0.13
19,C51V,-1.17 ± 0.15
20,C51W,-1.05 ± 0.15
21,C51I,-0.523 ± 0.37
22,C51E,-0.219 ± 0.16
23,C51H,-0.827 ± 0.18
24,C51Y,-0.94 ± 0.3
25,C51T,-1.16 ± 0.27

row,Variant,abundance fitness
1,C51A,-0.669 ± 0.16
2,C51S,-0.609 ± 0.12
3,C51P,-0.614 ± 0.14
4,C51D,-0.593 ± 0.27
5,C51R,-0.969 ± 0.095
6,C51Q,-0.696 ± 0.35
7,C51K,-0.839 ± 0.26
8,H54G,-0.317 ± 0.12
9,H54V,-0.612 ± 0.067
10,H54Y,-0.284 ± 0.15
11,H54C,0.135 ± 0.084
12,H54I,-0.755 ± 0.093
13,H54A,-0.865 ± 0.29
14,H54T,-0.7 ± 0.18
15,H54S,-0.522 ± 0.097
16,H54W,-0.856 ± 0.081
17,H54K,-0.7 ± 0.33
18,H54L,-0.653 ± 0.091
19,H54D,0.128 ± 0.065
20,H54P,-0.771 ± 0.18
21,H54R,-0.655 ± 0.087
22,H54M,-0.901 ± 0.25
23,H54N,-0.465 ± 0.33
24,H54Q,-0.759 ± 0.15
25,K53R,-0.124 ± 0.06

row,Variant,abundance fitness
1,K53C,-0.377 ± 0.16
2,K53T,0.037 ± 0.12
3,K53N,-0.056 ± 0.094
4,K53L,-0.135 ± 0.079
5,K53V,0.007 ± 0.085
6,K53W,0.164 ± 0.11
7,K53G,-0.158 ± 0.081
8,K53Q,0.028 ± 0.075
9,K53E,0.235 ± 0.094
10,K53F,-0.089 ± 0.19
11,K53Y,0.252 ± 0.2
12,K53A,-0.198 ± 0.13
13,K53D,0.078 ± 0.14
14,K53I,-0.275 ± 0.18
15,K53S,0.184 ± 0.088
16,K53H,0.377 ± 0.14
17,R56L,0.797 ± 0.18
18,R56V,0.049 ± 0.14
19,R56E,0.263 ± 0.16
20,R56G,0.068 ± 0.088
21,R56C,0.093 ± 0.3
22,R56W,-0.344 ± 0.084
